In the supplement of paper PMC9732359:
± gives the uncertainty stated by the source.

Test: protein stability index of a GFP-peptide fusion (yeast GPS) (PSI 1-4); higher = more stable; sorted into four equal gates, so the index is relative within each strain
Settings: san1∆
Summary of the method: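 For each peptide, the protein stability index sums the read frequency in every gate after multiplying it by the gate number. Read frequencies came from plasmids that were PCR-amplified from each gate and Illumina-sequenced, with reads assigned to strains by barcodes. The gates were four equal bins of GFP/Cherry fluorescence ratio applied to mid-log yeast in leucine-free medium carrying a pooled library of tiled 17-residue yeast protein peptides fused downstream of GFP on a Cherry-expressing plasmid.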

First: RRVYNRVLETTLVEFET [BRN1]
Second: RSDREYPLLIRMSYGSH [SRP14]
The protein stability index of the first is higher: 2.69 ± 0.17 for the first, 1.92 ± 0.077 for the second.

First: RSLLQEAIETCKNFEKT [GAL11]
Second: RSMSGQPPTNVQPTIGQ [SNF5]
The protein stability index of the first is lower: 2.59 ± 0.19 for the first, 3.01 ± 0.074 for the second.

Going from RSPPRPPSLKIIDGPKA [PRP28] to RSVDRAGRKFKSRRCDD [POP4], the protein stability index rises from 1.98 ± 0.094 to 3.33 ± 0.071.

Going from RSVRIPWYNNPVSCIIQ [PRP8] to RTNNVPMIKAEETPSKT [NUT1], the protein stability index rises from 2.02 ± 0.16 to 2.43 ± 0.097.

First: RTPDSISVNSSSFSLTF [POP1]
Second: RVASDTVHEMEEELKKL [SMC4]
The protein stability index of the first is lower: 2.44 ± 0.045 for the first, 3.29 ± 0.12 for the second.

First: RVGVVSILEAGDSDILT [RPL30]
Second: RVHANLQCISQINQGVP [SNF11]
The protein stability index of the first is higher: 2.98 ± 0.07 for the first, 1.47 ± 0.067 for the second.

First: RVHRLLRRGNYAQRIGS [HTA1]
Second: RVKAMEVDEKPTETYSD [RPT5]
The protein stability index of the first is lower: 2.64 ± 0.094 for the first, 3.1 ± 0.074 for the second.

First: RVNGSEFVHKYLGEGPR [RPT3]
Second: RVPIRSEYKVAFPHLYN [PRP8]
The protein stability index of the first is higher: 2.79 ± 0.056 for the first, 2.34 ± 0.083 for the second.

Compared with RVQVGDIVTVGQCRPIS [RPS11A], RVVRPKSLDAETEAEED [RPO21] is lower in protein stability index: 3.07 ± 0.067 for the first, 1.21 ± 0.19 for the second.

Compared with RVVYLKHLEDNTLLVTG [RPL6B], RWEMEAFGEFSLEGCVE [FAS2] is higher in protein stability index: 1.15 ± 0.2 for the first, 2.98 ± 0.095 for the second.

RYENNDDDERVEYNLFT [BRN1] and RYISTLTLYLFQDYLTQ [IRR1] are within error of each other in protein stability index: 3.07 ± 0.064 for the first, 3.14 ± 0.24 for the second.

Compared with RYLVGGNKIQKVLLDSK [RPS7A], RYNAKAIGSGSEGAQAE [PUP2] is higher in protein stability index: 1.51 ± 0.25 for the first, 3.36 ± 0.062 for the second.

Going from RYSMSEQFPFYLHDNAS [IRR1] to RYWVQKERSDGKRHIFD [CDC53], the protein stability index rises from 2.97 ± 0.063 to 3.46 ± 0.13.

Compared with SAAAAGNRNSSSVFLPS [BRR2], SAARGLSLVYEIGGSDL [ECM29] is higher in protein stability index: 3.13 ± 0.046 for the first, 3.33 ± 0.067 for the second.

First: SAGAVFKSSVEMGKTDK [YOR098C/NUP1]
Second: SAGFETDLRLSTNGLGM [SNU114]
The protein stability index of the first is higher: 3.29 ± 0.058 for the first, 2.98 ± 0.22 for the second.

Going from SAGLDSAQQNLASSFVN [RPN1] to SAHQSPIMQTQMPLNSN [SNF2], the protein stability index falls from 2.79 ± 0.17 to 2.54 ± 0.075.

SAIRKCVRVQLIKNGKK [RPS23A] and SALWSSRKGIAFGLGAI [ECM29] are within error of each other in protein stability index: 2.45 ± 0.12 for the first, 2.2 ± 0.13 for the second.

Compared with SARNYDKFKLNENDLKT [SMC1], SARSSVHESLVTQSNIL [SRB8] is higher in protein stability index: 2.35 ± 0.22 for the first, 2.81 ± 0.061 for the second.

Compared with SASLHTRSLKYGKLRNG [RRP4], SASPHLAPNMQLNGNET [SNF2] is higher in protein stability index: 1.08 ± 0.13 for the first, 3.1 ± 0.025 for the second.

Going from SASVRALIENWAADSVS [FAS1] to SAVKPRPLKLERGFACI [FAS1], the protein stability index falls from 2.59 ± 0.097 to 2.06 ± 0.082.

Compared with SDDIISQVDPITLFVLV [FAS2], SDDYDNEGAASSNPQSA [SMC1] is higher in protein stability index: 1.33 ± 0.17 for the first, 2.65 ± 0.12 for the second.

Going from SDNNSRIMSRNFYLKRF [SWI1] to SDSSSEDEVKVEGPKFT [YLR335W/NUP2], the protein stability index rises from 2.95 ± 0.099 to 3.4 ± 0.06.

Going from SDVLFEFTKINTPLVGA [YJL039C/NUP192] to SDVLRFLQRVRVWEYRQ [RPL15A], the protein stability index rises from 1.45 ± 0.088 to 1.71 ± 0.083.

Compared with SEAKRTKFSNPAIPPVI [BRR2], SECIVSIKSKVVDHHVE [RRP42] is higher in protein stability index: 2.45 ± 0.067 for the first, 2.71 ± 0.14 for the second.

Compared with SEDSAVFKATSSTDEES [FAS1], SEEEEDEEENGSSDEDL [SSN2] is higher in protein stability index: 2.93 ± 0.073 for the first, 3.63 ± 0.12 for the second.

Going from SEEIDSLNEDVEEIKLQ [SMC2] to SEHFDVNDNPDIEAGDD [DIS3], the protein stability index falls from 2.94 ± 0.097 to 2.72 ± 0.076.

Going from SEISSLKGKINNEMKSL [SMC1] to SELFDEWFEQNNSEQDQ [ISW2], the protein stability index falls from 2.65 ± 0.27 to 1.44 ± 0.14.

Going from SELPDIYSRDIGAELKR [SNF2] to SENHTESDAPPKSTAPI [YOR098C/NUP1], the protein stability index falls from 3.38 ± 0.08 to 2.51 ± 0.058.

Going from SEPIDLIIIEKKQKLIE [ITC1] to SEPIKEIIDNWEKYEQS [FAS1], the protein stability index rises from 2.87 ± 0.18 to 3.23 ± 0.048.

First: SESQLNSTLKKVESQET [YCS4]
Second: SETDKRQFLHELRRPGV [RPO31]
The protein stability index of the first is higher: 3.31 ± 0.1 for the first, 1.57 ± 0.16 for the second.

First: SETFLQFYVKRWKRFTI [CDC53]
Second: SFEETVEILFEAGASAE [RPO21]
The protein stability index of the first is lower: 1.73 ± 0.1 for the first, 2.89 ± 0.063 for the second.

Compared with SFGKIYVTKPMVNESDG [RPB2], SFGSKPTGKEEGDGAKA [YJL041W/NSP1] is higher in protein stability index: 3.01 ± 0.2 for the first, 3.48 ± 0.11 for the second.

First: SFIFQYYGLVIDLLLLG [PRP8]
Second: SFKYLSNNDEDDKDCTI [RGR1]
The protein stability index of the first is lower: 1.15 ± 0.16 for the first, 2.18 ± 0.055 for the second.

Compared with SFLFDVLKTLEYKLATY [NUT1], SFLFSAIPLQQVLSQSA [SWI1] is lower in protein stability index: 3 ± 0.097 for the first, 1.28 ± 0.091 for the second.

Compared with SFLSGVKSLLSEEKIRD [SIR4], SFNMAQIPQQLYQSLTP [SNF5] is lower in protein stability index: 2.92 ± 0.063 for the first, 2.14 ± 0.054 for the second.

First: SFSFGAPESMKSTASTA [YOR098C/NUP1]
Second: SGKETASAPLCSPKLPV [DLS1]
The protein stability index of the first is higher: 3.31 ± 0.059 for the first, 3.15 ± 0.039 for the second.

Compared with SGNNNGGFTNLTSQAPQ [YDL088C/ASM4], SGNNSKKRKNKSSGSSM [ROX3] is lower in protein stability index: 3.16 ± 0.054 for the first, 2.91 ± 0.12 for the second.

First: SGNNYNDINISSIENNI [MED2]
Second: SGQFYFRNPTPLLSNYA [RGR1]
The protein stability index of the first is higher: 2.89 ± 0.032 for the first, 1.8 ± 0.081 for the second.

SGSAGANPAGASQPEPT [YJL041W/NSP1] and SGSLFGSNNAQTSRGLF [YGL172W/NUP49] are within error of each other in protein stability index: 2.93 ± 0.1 for the first, 2.95 ± 0.047 for the second.

SGSQNISEFDSFTDILK [RPN12] and SGTPITQTESKKEENET [SNF2] are within error of each other in protein stability index: 3 ± 0.099 for the first, 2.94 ± 0.046 for the second.

SHDASRSLASFEQTAFS [SIR4] and SHLWEIDIPLDEQAFYN [RPC37] are within error of each other in protein stability index: 2.81 ± 0.053 for the first, 2.98 ± 0.24 for the second.

First: SIDCLLILILVISFGQP [SWI1]
Second: SIDPPGCVDIDDALHAK [DIS3]
The protein stability index of the first is lower: 1.52 ± 0.071 for the first, 3.25 ± 0.071 for the second.

First: SIGEPATQMTLNTFHFA [RPO21]
Second: SIKDTQNVGQGKLQRKE [BRN1]
The protein stability index of the first is higher: 3.04 ± 0.15 for the first, 1.94 ± 0.11 for the second.

Compared with SIKSKVVDHHVENELLQ [RRP42], SIQMEFMLRKQDPKTLV [SSN2] is lower in protein stability index: 2.82 ± 0.17 for the first, 1.82 ± 0.08 for the second.

Going from SIREDILECDLLICIGT [SIR2] to SIREQVHMYHKSLALLG [SNF5], the protein stability index falls from 2.78 ± 0.055 to 2.37 ± 0.095.

Going from SIWGNGYSGYGNGITNT [SNF5] to SKFYNMKQPYVFVKKHH [SSN2], the protein stability index falls from 3.35 ± 0.084 to 1.24 ± 0.14.

First: SKGFVFNSVQKKSRSNL [YAR002W/NUP60]
Second: SKISFIDEDKLYPSFKP [SSN2]
The protein stability index of the first is higher: 2.96 ± 0.17 for the first, 2.25 ± 0.087 for the second.

Same assay, conditions: ubr1∆

Going from RRVYNRVLETTLVEFET [BRN1] to RSDREYPLLIRMSYGSH [SRP14], the protein stability index rises from 1.7 ± 0.071 to 2.23 ± 0.061.

Sequence RSLLQEAIETCKNFEKT [GAL11] has a protein stability index of 3.09 ± 0.081.
